Experiments:
[1] = target: Fmut8Δ11 protein (recombinant ARFP, truncated HCV-1a F protein lacking the first 11 N-terminal amino acids) (HCV-1a) (UniProt P0C045); test: ELISA, serum 1/1600, day 29
[2] = target: Fmut8Δ11 protein (recombinant ARFP, truncated HCV-1a F protein lacking the first 11 N-terminal amino acids) (HCV-1a) (UniProt P0C045); test: ELISA, serum 1/100, day 52
[3] = target: Fmut8Δ11 protein (recombinant ARFP, truncated HCV-1a F protein lacking the first 11 N-terminal amino acids) (HCV-1a) (UniProt P0C045); test: ELISA, serum 1/800, day 29
[4] = target: Fmut8Δ11 protein (recombinant ARFP, truncated HCV-1a F protein lacking the first 11 N-terminal amino acids) (HCV-1a) (UniProt P0C045); test: ELISA, serum 1/100, day 29
[5] = target: Fmut8Δ11 protein (recombinant ARFP, truncated HCV-1a F protein lacking the first 11 N-terminal amino acids) (HCV-1a) (UniProt P0C045); test: ELISA, serum 1/400, day 29
[6] = target: Fmut8Δ11 protein (recombinant ARFP, truncated HCV-1a F protein lacking the first 11 N-terminal amino acids) (HCV-1a) (UniProt P0C045); test: ELISA, serum 1/1600, day 14
[7] = target: Fmut8Δ11 protein (recombinant ARFP, truncated HCV-1a F protein lacking the first 11 N-terminal amino acids) (HCV-1a) (UniProt P0C045); test: ELISA, serum 1/200, day 14
[8] = target: Fmut8Δ11 protein (recombinant ARFP, truncated HCV-1a F protein lacking the first 11 N-terminal amino acids) (HCV-1a) (UniProt P0C045); test: ELISA, serum 1/800, day 14
[9] = target: Fmut8Δ11 protein (recombinant ARFP, truncated HCV-1a F protein lacking the first 11 N-terminal amino acids) (HCV-1a) (UniProt P0C045); test: ELISA, serum 1/400, day 14
[10] = target: Fmut8Δ11 protein (recombinant ARFP, truncated HCV-1a F protein lacking the first 11 N-terminal amino acids) (HCV-1a) (UniProt P0C045); test: ELISA, serum 1/1600, day 52
[11] = target: Fmut8Δ11 protein (recombinant ARFP, truncated HCV-1a F protein lacking the first 11 N-terminal amino acids) (HCV-1a) (UniProt P0C045); test: ELISA, serum 1/400, day 52
[12] = target: Fmut8Δ11 protein (recombinant ARFP, truncated HCV-1a F protein lacking the first 11 N-terminal amino acids) (HCV-1a) (UniProt P0C045); test: ELISA, serum 1/100, day 14
[13] = target: Fmut8Δ11 protein (recombinant ARFP, truncated HCV-1a F protein lacking the first 11 N-terminal amino acids) (HCV-1a) (UniProt P0C045); test: ELISA, serum 1/200, day 29
[14] = target: Fmut8Δ11 protein (recombinant ARFP, truncated HCV-1a F protein lacking the first 11 N-terminal amino acids) (HCV-1a) (UniProt P0C045); test: ELISA, serum 1/800, day 52
[15] = target: Fmut8Δ11 protein (recombinant ARFP, truncated HCV-1a F protein lacking the first 11 N-terminal amino acids) (HCV-1a) (UniProt P0C045); test: ELISA, serum 1/50, day 29
[16] = target: Fmut8Δ11 protein (recombinant ARFP, truncated HCV-1a F protein lacking the first 11 N-terminal amino acids) (HCV-1a) (UniProt P0C045); test: ELISA, serum 1/50, day 52
[17] = target: Fmut8Δ11 protein (recombinant ARFP, truncated HCV-1a F protein lacking the first 11 N-terminal amino acids) (HCV-1a) (UniProt P0C045); test: ELISA, serum 1/200, day 52
[18] = target: Fmut8Δ11 protein (recombinant ARFP, truncated HCV-1a F protein lacking the first 11 N-terminal amino acids) (HCV-1a) (UniProt P0C045); test: ELISA, serum 1/50, day 14

Substance	OD410 [1]	OD410 [2]	OD410 [3]	OD410 [4]	OD410 [5]	OD410 [6]	OD410 [7]	OD410 [8]	OD410 [9]	OD410 [10]	OD410 [11]	OD410 [12]	OD410 [13]	OD410 [14]	OD410 [15]	OD410 [16]	OD410 [17]	OD410 [18]
serum of mouse 26, protocol 2, mock immunization (PBS) (antibody)	0.137	0.146	0.144	0.178	0.144	0.126	0.146	0.133	0.133	0.118	0.12	0.193	0.154	0.114	0.416	0.203	0.123	0.281
serum of mouse 17, protocol 2, mock immunization (PBS) (antibody)	0.112	0.286	0.119	0.269	0.138	0.159	0.321	0.184	0.248	0.125	0.142	0.487	0.191	0.125	0.754	0.5	0.185	0.67
serum of mouse 27, protocol 2, mock immunization (PBS) (antibody)	0.129	0.155	0.124	0.175	0.13	0.112	0.113	0.113	0.115	0.116	0.12	0.146	0.14	0.115	0.324	0.201	0.136	0.216
serum of mouse 13, protocol 2, mock immunization (PBS) (antibody)	0.13	0.238	0.126	0.161	0.121	0.142	0.151	0.169	0.143	0.113	0.133	0.177	0.126	0.123	0.338	0.474	0.172	0.288
serum of mouse 11, protocol 2, mock immunization (PBS) (antibody)	0.123	0.173	0.127	0.19	0.128	0.113	0.135	0.114	0.116	0.117	0.149	0.154	0.153	0.118	0.307	0.35	0.133	0.108
serum of mouse 12, protocol 2, mock immunization (PBS) (antibody)	0.117	0.208	0.114	0.148	0.114	0.15	0.215	0.16	0.17	0.12	0.146	0.302	0.127	0.125	0.246	0.516	0.17	0.442
serum of mouse 14, protocol 2, mock immunization (PBS) (antibody)	0.124	0.224	0.123	0.156	0.126	0.143	0.178	0.15	0.151	0.145	0.163	0.171	0.143	0.159	0.246	0.288	0.156	0.212
serum of mouse 20, protocol 2, mock immunization (PBS) (antibody)	0.141	0.182	0.13	0.181	0.133	0.118	0.138	0.136	0.121	0.127	0.141	0.168	0.154	0.127	0.51	0.247	0.146	0.245
serum of mouse 16, protocol 2, mock immunization (PBS) (antibody)	0.116	0.194	0.129	0.325	0.151	0.123	0.13	0.13	0.121	0.123	0.134	0.174	0.196	0.107	0.327	0.231	0.149	0.249
serum of mouse 19, protocol 2, mock immunization (PBS) (antibody)	0.119	0.175	0.139	0.27	0.54	0.129	0.144	0.13	0.142	0.126	0.135	0.18	0.184	0.12	0.444	0.313	0.143	0.23
serum of mouse 15, protocol 2, mock immunization (PBS) (antibody)	0.122	0.215	0.13	0.16	0.113	0.116	0.146	0.118	0.144	0.136	0.177	0.162	0.123	0.134	0.253	0.376	0.151	0.229
serum of mouse 30, protocol 2, mock immunization (PBS) (antibody)	0.129	0.148	0.126	0.224	0.132					0.119	0.119		0.157	0.113	0.381	0.226	0.128	
serum of mouse 18, protocol 2, mock immunization (PBS) (antibody)	0.119	0.161	0.126	0.217	0.134	0.122	0.136	0.126	0.127	0.134	0.12	0.162	0.166	0.114	0.356	0.279	0.135	0.228
serum of mouse 28, protocol 2, mock immunization (PBS) (antibody)	0.128	0.141	0.128	0.204	0.143	0.114	0.146	0.122	0.133	0.123	0.119	0.179	0.167	0.107	0.354	0.165	0.117	0.261

From US20090239794A1, “HCV F PROTEIN AND USES THEREOF” (priority 2004, published 2009)
